Measured values: publication PMC5498717, “Linking functions: an additional role for an intrinsically disordered linker domain in the transcriptional coactivator CBP” (Scientific Reports, 2017)

Target: the molecule itself
Test: cross-linking; BS3 0.25 mM, 15 min at RT in PBS with 1 mM DTT, proteins mixed about 1:1; SDS-PAGE, anti-His and anti-GST Western blots

B1: ZFP106-f (residues 1265-1521 of ZFP106), His-tagged (domain or fragment, human, UniProt Q9H2Y7 1265-1521, looked up)
chain: KFSVEQRNTRNRENSPSSQSAGLSSINKEGEEPTKGNSGSEACTSSFLRLSFASETPLEKEPHSPADQPEQQAESTLTSAETRGSKKKKKLRKKKSLRAAHVPENSDTEQDVLTVKPVRKVKAGKLIKGGKVTTSTWEDSRTGREQESVRDEPDSDSSLEVLEIPNPQLEVVAIDSSESGEEKPDSPSKKDIWNSTEQNPLETSRSGCDEVSSTSEIGTRYKDGIPVSVAETQTVISSIKGSKNSSEISSEPGDDDE
notes: The His tag is named for the cross-linking and detected by anti-His blot there and in the acetylation assays; also called wt ZFP106-f; His-tagged ZFP106-f
- stoichiometry N: 2
